In paper PMC3337949:

What was measured:
[1] = target: wild type Corkscrew (Csw^WT) (Drosophila); experiment: co-IP
[2] = target: substrate-trapping Csw, Csw^C583S (Csw^CS) (Drosophila); experiment: co-IP

A fold change of the co-immunoprecipitated amount against Draper-I [1] of 24 fold and a fold change of the co-immunoprecipitated amount against Csw^WT [2] of 1.7 fold were found for HA-tagged Draper-II (receptor) in this work.
